Results taken from patent US20220348651A1, “ENTPD2 ANTIBODIES, COMBINATION THERAPIES, AND METHODS OF USING THE ANTIBODIES AND COMBINATION THERAPIES” (Novartis AG, priority 2019, published 2022).

Tests used:
[1] = target: cynomologus (cyno) ENTPD2; experiment: Biacore (SPR) affinity to cyno ENTPD2 ECD; format: binding, cynomolgus monkey; details: 25° C.
Procedure, shortened: (§1)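 Kinetics were fitted globally to a 1:1 model (RI local) from sensorgrams of ENTPD2 extracellular domain binding to mAbs captured by an amine-coupled anti-human Fc surface. Running buffer was PBS pH 7.2 with 0.05% Tween 20; 180 s association, dissociation up to 1800 s, flow 30 μL/min.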

human ENTPD2 = target: T1, human ENTPD2 (Homo sapiens, UniProt Q9Y5L3); experiment: Biacore (SPR) affinity to human ENTPD2 ECD; format: binding; details: 25° C.
T1 construct: residues 29-462 of human or cyno ENTPD2 were cloned into expression vector; GP67 signal peptide (N); made in house; host or cells: High Five (Trichoplusia ni) insect cells, baculovirus
T1 sequence (Q9Y5L3 29-462): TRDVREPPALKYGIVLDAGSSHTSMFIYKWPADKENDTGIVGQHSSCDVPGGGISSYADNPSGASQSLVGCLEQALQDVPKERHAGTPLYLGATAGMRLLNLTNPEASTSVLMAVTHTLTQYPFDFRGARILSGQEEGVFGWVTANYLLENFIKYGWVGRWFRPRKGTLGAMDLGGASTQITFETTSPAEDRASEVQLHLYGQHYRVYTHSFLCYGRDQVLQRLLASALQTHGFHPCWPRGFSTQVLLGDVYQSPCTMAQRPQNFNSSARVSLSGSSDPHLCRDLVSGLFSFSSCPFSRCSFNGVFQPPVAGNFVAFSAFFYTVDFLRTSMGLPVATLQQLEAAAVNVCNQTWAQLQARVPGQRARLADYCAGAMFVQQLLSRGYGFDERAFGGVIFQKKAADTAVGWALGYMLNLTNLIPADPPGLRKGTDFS
Procedure, shortened: as §1

mouse ENTPD2 = target: T2, mouse ENTPD2 (Mus musculus, UniProt O55026); experiment: Antibody specificity: binding to mouse ENTPD2; details: Mouse ENTPD2
T2 construct: residues 29-462 of mouse or rat ENTPD2 (the extracellular domain); mouse IgK signal peptide (N); His6; made in house; host or cells: FreeStyle 293-F cells, transient transfection
T2 sequence (O55026 29-462): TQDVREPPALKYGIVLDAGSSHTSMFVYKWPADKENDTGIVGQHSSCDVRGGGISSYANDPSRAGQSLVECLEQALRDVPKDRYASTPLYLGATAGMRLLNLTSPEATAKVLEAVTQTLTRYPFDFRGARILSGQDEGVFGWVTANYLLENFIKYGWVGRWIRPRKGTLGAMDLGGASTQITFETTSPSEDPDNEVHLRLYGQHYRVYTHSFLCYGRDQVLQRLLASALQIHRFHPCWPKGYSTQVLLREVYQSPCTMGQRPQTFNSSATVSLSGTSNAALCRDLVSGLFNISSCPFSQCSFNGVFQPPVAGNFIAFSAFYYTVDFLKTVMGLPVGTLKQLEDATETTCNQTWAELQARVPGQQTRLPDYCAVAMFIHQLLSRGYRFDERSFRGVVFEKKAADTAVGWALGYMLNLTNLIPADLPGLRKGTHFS
Excerpt: Antibody specificity for mAbl-mAblO was confirmed. […] Antibodies mAb8, mAb9, and mAb10 show weak affinity to mouse ENTPD2. None of the selected antibodies bind to rat ENTPD2.

NIH/3T3 cells = experiment: Cross reactivity: FACS binding to NIH/3T3 control cells; details: 50 nM antibody
Protocol: FACS screening: Specific binding of candidate antibodies to endogenously expressed ENTPD2 was assessed by flow cytometry. Cells were rinsed thoroughly with 1×PBS and treated with Accutase (Millipore #SCR005) to lift from growth plates and resuspended at approximately 1×10^5 cells/90 μL in 1× FACS buffer (2% FBS+0.1% NaN3 in PBS). In a 96-well U-bottom plate, 10 μL of 10× antibody solution in FACS buffer was pre-seeded and 90 μL of cell suspension was added. Cell were incubated for 30 minutes at 4° C., washed 1× with cold PBS and resuspended in 100 μL of 1:500 secondary antibody 1× FACS buffer (Allophycocyanin conjugated F(ab′)2 goat anti-human IgG, Fcγ specific; Jackson Immunoresearch, Cat#109-136-098). After additional incubation for 15 min at 4° C., cells were washed twice with PBS and resuspended in 100 μL of 1×FACS buffer with 4 μg/mL propidium iodide (Life Technologies, Cat#P3566). Geometric mean fluorescence intensity was calculated on live single cells using FlowJo software.
Cross reactivity Human ENTPD1 (NP_001767) expressing NIH/3T3 cells were generated using a retroviral transduction approach. 72 hrs post transduction, engineered cells were stained with the anti-Human CD39/ENTPD1 APC-conjugated Antibody (R&D systems, Minneapolis, Minn.) and live cells that expressed human ENTPD1 were separated from the rest of the population via fluorescence activated cell sorting. […]

cynomologus (cyno) ENTPD2, sequence (as listed by the source): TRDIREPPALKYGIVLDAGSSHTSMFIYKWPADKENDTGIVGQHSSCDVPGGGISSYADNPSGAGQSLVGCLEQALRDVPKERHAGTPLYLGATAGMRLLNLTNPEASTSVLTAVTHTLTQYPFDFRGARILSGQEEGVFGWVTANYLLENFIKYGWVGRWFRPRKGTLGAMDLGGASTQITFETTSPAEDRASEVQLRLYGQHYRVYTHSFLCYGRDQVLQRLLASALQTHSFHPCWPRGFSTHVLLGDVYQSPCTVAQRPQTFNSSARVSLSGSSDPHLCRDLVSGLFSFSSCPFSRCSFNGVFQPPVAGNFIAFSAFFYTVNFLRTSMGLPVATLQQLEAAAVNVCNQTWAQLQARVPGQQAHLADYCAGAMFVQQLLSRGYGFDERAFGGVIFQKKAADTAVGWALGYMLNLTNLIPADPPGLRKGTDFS

B1: mAb7: humanized anti-human ENTPD2 antibody from mAb17; VH SEQ ID NO: 25, VL SEQ ID NO: 78 (antibody, V domains shown)
VH: QVQLVQSGAEVVKPGASVKISCKASGYTFTDYNMDWVKQAPGQRLEWIGDINPKYDISTYNQQFKGKATITVDKSASTAYMELSSLRSEDTAVYYCARRGFFLYYGINYYYFDVWGQGTLVTVSS
VL: EIVLTQSPATLSASPGEEITLSCSASSSVSYIHWYQQKPGQAPRLLIYSTSNLASGIPARFSGSGSGTFYTLTISSVEPEDAAVYYCHQWSSYPWTFGGGTKLEIK
With B1 the Kd [1] was 1.1 nM, the ka [1] was 1.2e+06 M⁻¹ s⁻¹ and the kd [1] was 0.0012 s⁻¹. For the same molecule, the Kd (human ENTPD2) was 0.9 nM, the ka (human ENTPD2) was 210000 M⁻¹ s⁻¹ and the kd (human ENTPD2) was 0.00019 s⁻¹. The “BIACore KD” value (mouse ENTPD2) was “No binding” and the “Apparent FACS binding at 50 nM” value (NIH/3T3 cells) was “No binding”.
